The target in assay [1] is rHuman Erythropoietin R/Fc Chimera (human) (UniProt P19235). Description: ECL multispot (MSD) binding assay; antigen spotted on plate, Fab in solution.
Assay [2] addresses rHuman EGF R/Fc Chimera, CF (R&D Systems Cat#344-ER) (human) (UniProt P00533). Description: ECL Multispot (MSD), antigen spotted, Fab 0.50 (column head 'Fab [µM]'); blank 206.
Assay [3] concerns the target rHuman Erythropoietin R/Fc Chimera, CF (R&D Systems Cat#963-ER) (human) (UniProt P19235). The assay is described as above.
Assay [4] deals with rHuman EGF R/Fc Chimera, CF (R&D Systems Cat#344-ER) (human) (UniProt P00533). Description: ECL Multispot (MSD), antigen spotted, Fab 5.00 (column head 'Fab [µM]'); blank 268.
The target in assay [5] is rHuman Erythropoietin R/Fc Chimera, CF (R&D Systems Cat#963-ER) (human) (UniProt P19235). The description is as above.
Assay [6] addresses rHuman EGF R/Fc Chimera, CF (R&D Systems Cat#344-ER) (human) (UniProt P00533). Description: ECL Multispot (MSD), antigen spotted, Fab 50.00 (column head 'Fab [µM]'); blank 223.
Assay [7] deals with rHuman Erythropoietin R/Fc Chimera, CF (R&D Systems Cat#963-ER) (human) (UniProt P19235). The description is as above.
In assay [8] the target is rHuman EGF R/Fc Chimera, CF (R&D Systems Cat#344-ER) (human) (UniProt P00533). Description: ECL Multispot (MSD), antigen spotted, Fab 500.00 (column head 'Fab [µM]'); blank 495.
Assay [9] addresses rHuman Erythropoietin R/Fc Chimera, CF (R&D Systems Cat#963-ER) (human) (UniProt P19235). The assay is described as above.
Assay [10] shares this target. Description: ECL Multispot (MSD), antigen spotted; Fab 5 (µM); blank 102; first of duplicates.
For assay [11] the target is unchanged. Description: ECL Multispot (MSD), antigen spotted; Fab 50 (µM); blank 332; first of duplicates.
The target is the same in assay [12]. Description: ECL Multispot (MSD), antigen spotted; Fab 0.50 (µM); blank 95; first of duplicates.
For assay [13] the target is unchanged. Description: ECL Multispot (MSD), antigen spotted; Fab 500 (µM); blank 570; first of duplicates.
For assay [14] the target is unchanged. Description: MSD ECL multispot assay, antigen spotted on plate, Fab in solution; blank spot of this row 274. Also: test concentration or dose not given here.
The target is the same in assay [15]. Description: MSD ECL multispot assay, antigen spotted on plate, Fab in solution; blank spot of this row 277. Also: test concentration or dose not given here.
For assay [16] the target is unchanged. Description: MSD ECL multispot assay, antigen spotted on plate, Fab in solution; blank spot of this row 282. Also: test concentration or dose not given here.
Assay [17] has the same target. Description: ECL multispot (MSD) binding assay, antigen spotted on plate. Also: test concentration or dose not given here.
In assay [18] the target is rHuman Erythropoietin R/Fc Chimera, CF (human) (UniProt P19235). Description: ECL multispot (MSD) assay, antigen spotted on the plate, Fab in solution; blank spot of the same well 284. Also: test concentration or dose not given here.
In assay [19] the target is Recombinant Human DLL4 (human) (UniProt Q9NR61). Description: ECL (MSD) multispot binding assay, DLL4 signal over blank spot.
Assay [20] shares this target. Description: ECL (MSD) multispot binding assay, DLL4 spotted on plate, Fab in solution.
For assay [21], the target named is Recombinant Human DLL4 (delta-like protein 4) (human) (UniProt Q9NR61). Description: ECL multispot (MSD) binding assay; antigen spotted on plate, Fab in solution.
In assay [22] the target is rHuman ErbB2/Fc Chimera, CF (R&D Systems Cat#1129-ER) (human) (UniProt P04626). Description: MSD Multispot ECL, antigen spotted on plate, Fab in solution; blank spot of the row 337.
Assay [23] has as its target rHuman IGF-1 sR, (IGF-1 sR), CF (R&D Systems Cat#391-GR) (human) (UniProt P08069). The assay is described as above.
Assay [24] deals with rHuman ErbB2/Fc Chimera, CF (R&D Systems Cat#1129-ER) (human) (UniProt P04626). Description: MSD Multispot ECL, antigen spotted on plate, Fab in solution; blank spot of the row 373.
In assay [25] the target is rHuman IGF-1 sR, (IGF-1 sR), CF (R&D Systems Cat#391-GR) (human) (UniProt P08069). Described as above.
Assay [26] has as its target rHuman CD44/Fc Chimera, CF (R&D Systems Cat#3660-CD) (human) (UniProt P16070). Description: MSD Multispot ECL, antigen spotted on plate, Fab in solution; blank spot of the row 297.
The target of assay [27] is rHuman ErbB2/Fc Chimera, CF (R&D Systems Cat#1129-ER) (human) (UniProt P04626). The assay is described as above.
Assay [28] concerns the target rHuman IGF-1 sR, (IGF-1 sR), CF (R&D Systems Cat#391-GR) (human) (UniProt P08069). The assay is described as above.
Assay [29] concerns the target rHuman CD44/Fc Chimera, CF (R&D Systems Cat#3660-CD) (human) (UniProt P16070). Description: MSD Multispot ECL, antigen spotted on plate, Fab in solution; blank spot of the row 300.
For assay [30], the target named is rHuman ErbB2/Fc Chimera, CF (R&D Systems Cat#1129-ER) (human) (UniProt P04626). The description is as above.
Assay [31] addresses rHuman IGF-1 sR, (IGF-1 sR), CF (R&D Systems Cat#391-GR) (human) (UniProt P08069). Described as above.
The target in assay [32] is rHuman ErbB2/Fc Chimera, CF (R&D Systems Cat#1129-ER) (human) (UniProt P04626). Description: MSD Multispot ECL, antigen spotted on plate, Fab in solution; blank spot of the row 316.
Assay [33] addresses rHuman IGF-1 sR, (IGF-1 sR), CF (R&D Systems Cat#391-GR) (human) (UniProt P08069). The assay is described as above.
The target of assay [34] is rHuman ErbB2/Fc Chimera, CF (R&D Systems Cat#1129-ER) (human) (UniProt P04626). Description: MSD Multispot ECL, antigen spotted on plate, Fab in solution; blank spot of the row 351.
Assay [35] has as its target rHuman IGF-1 sR, (IGF-1 sR), CF (R&D Systems Cat#391-GR) (human) (UniProt P08069). The description is as above.

Values joined by “and” are separate entries in the source; they are usually repeats but may differ in a detail not shown here. Identical values can stand only once.

We go through ten substances from patent US20120316071A1.

With “Fab VH1-46_IGHD6-6*01_IGHJ1*01 S102A/S103P/S104F/H111F (APFF) & L6_IGKJ1*01”, the ECL signal in [1] was 433; in assay [2] it was 266; in assay [3], 298; in assay [4], 303; in [5] it was 423; in [6] it was 552. The ECL signal in [7] was found to be 879; in assay [8], 2900; in assay [9] it was 4970; in assay [10], 294; in assay [11], 736; in assay [12] it was 122. Besides, the ECL signal is 4720 in assay [13], 473 in assay [14], 467 in assay [15] and 1060 in assay [16].
The substance “Fab VH1-46_IGHD6-6*01_IGHJ1*01 S102A/S103P/S104F/H111F (APFF) & L6_IGKJ1*01 S31A” displayed an ECL signal in [17] of 461.
In assay [18], “Fab VH1-46_IGHD6-6*01_IGHJ1*01 S102A/S103P/S104F/H111F (APFF) & L6_IGKJ1*01 S31Y” came in with an ECL signal of 604.
For “Fab VH1-46_IGHD6-6*01_IGHJ1*01 S102A/S103P/S104F/H111F (APFF) & L6_IGKJ1*01 S92R”, the Signal/Blank in assay [19] stood at 1.7. Further, the ECL signal in assay [20] was 418; in assay [21] it was 418 and 587.
For the substance “Fab VH5-51_IGHD5-18*01>3_IGHJ4*01 G100K/G104T F29A & V3-4_IGLJ1*01”, the ECL signal is 1040 in assay [22] and 945 in assay [23].
Consider “Fab VH5-51_IGHD5-18*01>3_IGHJ4*01 G100K/G104T G24A & V3-4_IGLJ1*01”, for which the ECL signal came to 869 in assay [24] and 879 in assay [25].
Regarding “Fab VH5-51_IGHD5-18*01>3_IGHJ4*01 G100K/G104T G35A & V3-4_IGLJ1*01”, the ECL signal in assay [26] was found to be 624; in assay [27] it was 911; in assay [28] it was 899.
Turning to “Fab VH5-51_IGHD5-18*01>3_IGHJ4*01 G100K/G104T I34A & V3-4_IGLJ1*01”, the results for the ECL signal in assay [29], in assay [30] and in [31] were 608, 1150 and 923, respectively.
For the substance “Fab VH5-51_IGHD5-18*01>3_IGHJ4*01 G100K/G104T S28A & V3-4_IGLJ1*01”, the ECL signal is 1070 in [32] and 924 in [33].
As to “Fab VH5-51_IGHD5-18*01>3_IGHJ4*01 G100K/G104T T30A & V3-4_IGLJ1*01”, the ECL signal in assay [34] was 1070; in [35], 968.
